Target: CaV2.1 (full-length) (UniProt P54282)

| inhibition of peak IBa (CaV2.1/α2δ-2/β4) on co-expression in Xenopus oocytes [% inhibition] | reduction of peak IBa (CaV2.1/α2δ-2/β4) on co-expression in Xenopus oocytes [% reduction] | Substance |
| --- | --- | --- |
| 37.9 | – | CaV2.1 N terminus (residues 1–100) (from UniProt P54282 1-100) (domain or fragment) |
| – | 43.8 | CaV2.1 N terminus-CAAX (from UniProt P54282 1-100) (domain or fragment) |
